The assay has as its target T1, IL23R_huFC (human, UniProt Q5VWK5 24-353).
T1 sequence (looked up): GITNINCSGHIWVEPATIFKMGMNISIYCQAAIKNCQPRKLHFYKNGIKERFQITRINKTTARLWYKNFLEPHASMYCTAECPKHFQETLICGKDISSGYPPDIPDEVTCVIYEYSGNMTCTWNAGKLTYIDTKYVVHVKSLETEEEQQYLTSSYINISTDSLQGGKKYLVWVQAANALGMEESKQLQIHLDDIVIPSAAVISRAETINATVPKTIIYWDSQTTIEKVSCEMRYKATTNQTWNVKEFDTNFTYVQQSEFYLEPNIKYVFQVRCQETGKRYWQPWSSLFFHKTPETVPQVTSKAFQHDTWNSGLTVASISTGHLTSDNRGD
The assay can be described thus: IL23-IL23R competitive ELISA. On the technique in general: In an ELISA, binding on a coated surface is turned into a signal by an enzyme label.

Bridges are numbered along the chain shown (N, C = ends). [ ]: non-standard residue; d: D form. PEG1 = NCCOCCC(=O)O; AEA = NCCOCC(=O)O A value given as a limit tells only on which side of the number the result lay.

By IC50 is commonly meant the point on the concentration scale where inhibition reaches its midpoint. A high value points to weaker potency. Turning to Ac-CKTWTCYWHEFG-NH2 (disulfide 1-6 (inferred)) [Ac-CKTWTCYWHEFG-NH2], the concentration for half-maximal inhibition (IC50) is below 500 nM.
As for Ac-CQTWQCYWRENG-NH2 (disulfide 1-6 (inferred)) [Ac-CQTWQCYWRENG-NH2], the figure is below 500 nM; as for Ac-CQTWQCYWLENG-NH2 (disulfide 1-6 (inferred)) [Ac-CQTWQCYWLENG-NH2], below 500 nM; as for Ac-CADWVCYWHTFG-OH (disulfide 1-6 (inferred)) [Ac-CADWVCYWHTFG-OH], below 500 nM.
Turning to H-CSNWVCYWHTYG-NH2 (disulfide 1-6 (inferred)) [Hy-CSNWVCYWHTYG-NH2], the IC50 is below 500 nM.
Consider H-CRDWQCYWHKFG-NH2 (disulfide 1-6 (inferred)) [Hy-CRDWQCYWHKFG-NH2], for which the IC50 is below 500 nM.
As for Ac-CRTWECYWHEYG-NH2 (disulfide 1-6 (inferred)) [Ac-CRTWECYWHEYG-NH2], the figure is below 500 nM; as for Ac-CTTWECYWHQFG-NH2 (disulfide 1-6 (inferred)) [Ac-CTTWECYWHQFG-NH2], below 500 nM.
As for Ac-CRTWQCYWHEYG-NH2 (disulfide 1-6 (inferred)) [Ac-CRTWQCYWHEYG-NH2], the figure is below 500 nM; as for Ac-CATWQCYWHEYG-NH2 (disulfide 1-6 (inferred)) [Ac-CATWQCYWHEYG-NH2], below 500 nM; as for Ac-CTTWECYWHEYG-NH2 (disulfide 1-6 (inferred)) [Ac-CTTWECYWHEYG-NH2], below 500 nM.
The same measure for Ac-CRTWECYWHEFG-NH2 (disulfide 1-6 (inferred)) [Ac-CRTWECYWHEFG-NH2]: below 500 nM; for Ac-CTTWECYWHEFG-NH2 (disulfide 1-6 (inferred)) [Ac-CTTWECYWHEFG-NH2]: below 500 nM; for Ac-CTTWTCYWHQYG-NH2 (disulfide 1-6 (inferred)) [Ac-CTTWTCYWHQYG-NH2]: below 500 nM.
Ac-CADWVCYWHTFGAA[dK]-OH (disulfide 1-6 (inferred)) [Ac-CADWVCYWHTFGAA[(D)Lys]-OH]: the IC50 was below 500 nM.
The same measure for Ac-CADWVCYWHTFGA[dK]-OH (disulfide 1-6 (inferred)) [Ac-CADWVCYWHTFGA-[(D)Lys]-OH]: below 500 nM.

B1: Ac-CQTWQCYWRENG-[AEA]-[(D)Arg]-NH2 (peptide)
peptide: Ac-CQTWQCYWRENG[AEA][dR]-NH2
modifications: disulfide 1-6
SMILES: CC(=O)N[C@H]1CSSC[C@@H](C(=O)N[C@@H](Cc2ccc(O)cc2)C(=O)N[C@@H](Cc2c[nH]c3ccccc23)C(=O)N[C@@H](CCCNC(=N)N)C(=O)N[C@@H](CCC(=O)O)C(=O)N[C@@H](CC(N)=O)C(=O)NCC(=O)NCCOCC(=O)N[C@H](CCCNC(=N)N)C(N)=O)NC(=O)[C@H](CCC(N)=O)NC(=O)[C@H](Cc2c[nH]c3ccccc23)NC(=O)[C@H]([C@@H](C)O)NC(=O)[C@H](CCC(N)=O)NC1=O
Turning to B1, the 50% inhibitory concentration (IC50) was below 500 nM.

B2: Ac-CQTWVCYWRENG-[AEA]-[(D)-Lys]-NH2 (peptide)
peptide: Ac-CQTWVCYWRENG[AEA][dK]-NH2
modifications: disulfide 1-6
SMILES: CC(=O)N[C@H]1CSSC[C@@H](C(=O)N[C@@H](Cc2ccc(O)cc2)C(=O)N[C@@H](Cc2c[nH]c3ccccc23)C(=O)N[C@@H](CCCNC(=N)N)C(=O)N[C@@H](CCC(=O)O)C(=O)N[C@@H](CC(N)=O)C(=O)NCC(=O)NCCOCC(=O)N[C@H](CCCCN)C(N)=O)NC(=O)[C@H](C(C)C)NC(=O)[C@H](Cc2c[nH]c3ccccc23)NC(=O)[C@H]([C@@H](C)O)NC(=O)[C@H](CCC(N)=O)NC1=O
B2 came in with an IC50 below 500 nM.

B3: Ac-CRDWQCYWHKFG-[AEP]-[(D)Lys]-OH (peptide)
peptide: Ac-CRDWQCYWHKFG[PEG1][dK]-OH
modifications: disulfide 1-6
SMILES: CC(=O)N[C@H]1CSSC[C@@H](C(=O)N[C@@H](Cc2ccc(O)cc2)C(=O)N[C@@H](Cc2c[nH]c3ccccc23)C(=O)N[C@@H](Cc2c[nH]cn2)C(=O)N[C@@H](CCCCN)C(=O)N[C@@H](Cc2ccccc2)C(=O)NCC(=O)NCCOCCC(=O)N[C@H](CCCCN)C(=O)O)NC(=O)[C@H](CCC(N)=O)NC(=O)[C@H](Cc2c[nH]c3ccccc23)NC(=O)[C@H](CC(=O)O)NC(=O)[C@H](CCCNC(=N)N)NC1=O
On to B3, for which the IC50 was below 500 nM.

B4: Ac-CQTWQCYWRKNG-[AEA]-[(D)-Lys]-NH2 (peptide)
peptide: Ac-CQTWQCYWRKNG[AEA][dK]-NH2
modifications: disulfide 1-6
SMILES: CC(=O)N[C@H]1CSSC[C@@H](C(=O)N[C@@H](Cc2ccc(O)cc2)C(=O)N[C@@H](Cc2c[nH]c3ccccc23)C(=O)N[C@@H](CCCNC(=N)N)C(=O)N[C@@H](CCCCN)C(=O)N[C@@H](CC(N)=O)C(=O)NCC(=O)NCCOCC(=O)N[C@H](CCCCN)C(N)=O)NC(=O)[C@H](CCC(N)=O)NC(=O)[C@H](Cc2c[nH]c3ccccc23)NC(=O)[C@H]([C@@H](C)O)NC(=O)[C@H](CCC(N)=O)NC1=O
Turning to B4, the IC50 was below 500 nM.

B5: Ac-CQTWQCYWRRNG-[AEA]-[(D)-Lys]-NH2 (peptide)
peptide: Ac-CQTWQCYWRRNG[AEA][dK]-NH2
modifications: disulfide 1-6
SMILES: CC(=O)N[C@H]1CSSC[C@@H](C(=O)N[C@@H](Cc2ccc(O)cc2)C(=O)N[C@@H](Cc2c[nH]c3ccccc23)C(=O)N[C@@H](CCCNC(=N)N)C(=O)N[C@@H](CCCNC(=N)N)C(=O)N[C@@H](CC(N)=O)C(=O)NCC(=O)NCCOCC(=O)N[C@H](CCCCN)C(N)=O)NC(=O)[C@H](CCC(N)=O)NC(=O)[C@H](Cc2c[nH]c3ccccc23)NC(=O)[C@H]([C@@H](C)O)NC(=O)[C@H](CCC(N)=O)NC1=O
Take B5: the half-maximal inhibitory concentration (IC50) is below 500 nM.

B6: Ac-CQTWQCYWRKNG-[AEA]-[(D)-Lys]-NH2 (peptide)
peptide: Ac-CQTWQCYWRKNG[AEA][dK]-NH2
modifications: disulfide 1-6
SMILES: CC(=O)N[C@H]1CSSC[C@@H](C(=O)N[C@@H](Cc2ccc(O)cc2)C(=O)N[C@@H](Cc2c[nH]c3ccccc23)C(=O)N[C@@H](CCCNC(=N)N)C(=O)N[C@@H](CCCCN)C(=O)N[C@@H](CC(N)=O)C(=O)NCC(=O)NCCOCC(=O)N[C@H](CCCCN)C(N)=O)NC(=O)[C@H](CCC(N)=O)NC(=O)[C@H](Cc2c[nH]c3ccccc23)NC(=O)[C@H]([C@@H](C)O)NC(=O)[C@H](CCC(N)=O)NC1=O
Molecule B6 had a half-maximal inhibitory concentration (IC50) below 500 nM.

B7: Ac-CQTWVCYWRENG-[AEA]-[(D)-Lys]-NH2 (peptide)
peptide: Ac-CQTWVCYWRENG[AEA][dK]-NH2
modifications: disulfide 1-6
SMILES: CC(=O)N[C@H]1CSSC[C@@H](C(=O)N[C@@H](Cc2ccc(O)cc2)C(=O)N[C@@H](Cc2c[nH]c3ccccc23)C(=O)N[C@@H](CCCNC(=N)N)C(=O)N[C@@H](CCC(=O)O)C(=O)N[C@@H](CC(N)=O)C(=O)NCC(=O)NCCOCC(=O)N[C@H](CCCCN)C(N)=O)NC(=O)[C@H](C(C)C)NC(=O)[C@H](Cc2c[nH]c3ccccc23)NC(=O)[C@H]([C@@H](C)O)NC(=O)[C@H](CCC(N)=O)NC1=O
In the case of B7, the half-maximal inhibitory concentration (IC50) was below 500 nM.

B8: Ac-CQTWQCYWRTNG-[AEA]-[(D)-Lys]-NH2 (peptide)
peptide: Ac-CQTWQCYWRTNG[AEA][dK]-NH2
modifications: disulfide 1-6
SMILES: CC(=O)N[C@H]1CSSC[C@@H](C(=O)N[C@@H](Cc2ccc(O)cc2)C(=O)N[C@@H](Cc2c[nH]c3ccccc23)C(=O)N[C@@H](CCCNC(=N)N)C(=O)N[C@H](C(=O)N[C@@H](CC(N)=O)C(=O)NCC(=O)NCCOCC(=O)N[C@H](CCCCN)C(N)=O)[C@@H](C)O)NC(=O)[C@H](CCC(N)=O)NC(=O)[C@H](Cc2c[nH]c3ccccc23)NC(=O)[C@H]([C@@H](C)O)NC(=O)[C@H](CCC(N)=O)NC1=O
As to B8, the IC50 is below 500 nM.
Regarding Ac-CRTWQCYWRKFG[AEA][dK]-NH2 (disulfide 1-6 (inferred)) [Ac-CRTWQCYWRKFG-[AEA]-[(D)-Lys]-NH2], the IC50 is below 500 nM.

B9: Ac-CQTWQCYWRTNG-[AEA]-[(D)-Lys]-NH2 (peptide)
peptide: Ac-CQTWQCYWRTNG[AEA][dK]-NH2
modifications: disulfide 1-6
SMILES: CC(=O)N[C@H]1CSSC[C@@H](C(=O)N[C@@H](Cc2ccc(O)cc2)C(=O)N[C@@H](Cc2c[nH]c3ccccc23)C(=O)N[C@@H](CCCNC(=N)N)C(=O)N[C@H](C(=O)N[C@@H](CC(N)=O)C(=O)NCC(=O)NCCOCC(=O)N[C@H](CCCCN)C(N)=O)[C@@H](C)O)NC(=O)[C@H](CCC(N)=O)NC(=O)[C@H](Cc2c[nH]c3ccccc23)NC(=O)[C@H]([C@@H](C)O)NC(=O)[C@H](CCC(N)=O)NC1=O
Turning to B9, the IC50 was below 500 nM.
Regarding CADWVCYWHTFGAK (Ac-; [β-Ala]; [(D)Lys]; disulfide) [Ac-CADWVCYWHTFG-[β-Ala]-[(D)Lys]-OH], the half-inhibitory concentration (IC50) was below 500 nM.
Ac-CADWVCYWHTFGP[dK]-OH (disulfide 1-6 (inferred)) [Ac-CADWVCYWHTFGP-[(D)Lys]-OH] yielded a 50% inhibitory concentration (IC50) below 500 nM.
As for Ac-CADWVCYWHTYG-NH2 (disulfide 1-6 (inferred)) [Ac-CADWVCYWHTYG-NH2], the figure is below 500 nM.
As for Ac-CTDWVCYWHTFG-NH2 (disulfide 1-6 (inferred)) [Ac-CTDWVCYWHTFG-NH2], the figure is below 500 nM.
